We go through 1 molecule from paper PMC5430726, “Grb2 carboxyl-terminal SH3 domain can bivalently associate with two ligands, in an SH3 dependent manner” (Scientific Reports, 2017).

The target in assay [1] is T1, Grb2 C-terminal SH3 domain (SH3C), residues 155-217 (mouse, UniProt Q60631 155-217).
T1 construct: Uniformly 15N or 15N,13C labelled in the NMR titrations; monomer by glutaraldehyde cross-linking and SEC; also called Grb2 SH3C; Grb2 CSH3 domain; source: E. coli, purified (Ni2+-NTA chromatography); not shown: His tag, N-terminal, cleaved
T1 sequence (Q60631 155-217): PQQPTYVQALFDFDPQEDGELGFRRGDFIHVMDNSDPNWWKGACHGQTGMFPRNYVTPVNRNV
Kind of assay: ITC; free Grb2 SH3C in the cell (20 uM for the peptide, 40 uM for Vav) titrated with 280 uM SLP65 peptide or 600 uM Vav SH3N; 20 mM sodium phosphate, 100 mM NaCl, pH 6.0, 25 °C; one-site binding model. The settings on record: both partners purified. A general note: ITC needs no label: the signal is the heat of the interaction.

Assay [2] concerns the target T1, Grb2 C-terminal SH3 domain (SH3C), …. Kind of assay: ITC; SLP65 peptide titrated into the preformed Grb2 SH3C-Vav SH3N binary complex (gives Complex 1, Vav displaced); 20 mM sodium phosphate, 100 mM NaCl, pH 6.0, 25 °C. The settings on record: both partners purified.

B1: SLP65 peptide Ace-EKAPMVNRSTKPNSSS-NH2 (residues 201-216 of mouse SLP65) (peptide)
peptide: Ac-EKAPMVNRSTKPNSSS-NH2
notes: SLP65, mouse, residues 201-216; also called synthetic peptide; source: synthetic peptide
The term Kd denotes a measure of binding affinity in units of concentration. Lower therefore signals tighter binding. What is called stoichiometry N is the number of molecules, sites or subunits per partner or assembly. Turning to B1, in assay [1], the Kd worked out at 3.55 ± 0.2 µM, the dH was -6.67 ± 0.15 kcal/mol and the “stoichiometry N” value turned out to be 0.87 ± 0.02. Moreover, in assay [2], the “Kd with Vav SH3N prebound to Grb2 SH3C (Vav displaced)” value was 33.3 ± 1.1 µM and the “dH with Vav SH3N prebound to Grb2 SH3C (Vav displaced)” value is -5.9 ± 0.04 kcal/mol.
